Patent US20250339501A1, “COMPOSITIONS AND METHODS FOR TREATING METABOLIC DISEASE” (The Regents of the University of California, priority 2021, published 2025)
“Also recorded” adds a separate entry of the source. Read-outs that look alike come from different tables or passages of the source.

Assays:
C2C12 myotubes = assay: Dj1 release from muscle cells into culture medium; format: cell-based, mouse; details: for protein level of Dj1 in the media: C2C12 myotubes with or without CCCP, Tg; for muscle cell release of Dj1: in vitro (C2C12 myotubes) and ex vivo muscle
Procedure: Seeded cells were cultured in 6-well plates for 24 hours prior to transfection. Transfections were performed using Lipofectamine 2000 and PLUS reagent according to manufacturer instructions (Invitrogen, Carlsbad, CA). Human HepG2 cells were cultured in DMEM/low media containing 10% fetal bovine serum with penicillin/streptomycin. Mouse AML12 cells were maintained in DMEM/F12, ITS supplement (Gibco, USA), 40 ng/ml dexamethasone, and 10% fetal bovine serum with penicillin/streptomycin.
An adenovirus encoding mouse Dj1 was generated using the ViraPower Adenoviral Expression System (Invitrogen) according to manufacturer instructions. […] Entry clones were obtained by recombination of the purified DNA fragment with the pDONR221 vector using Gateway BP clonase II. Mouse Dj1 insert was transferred from the entry clones into the pAd/CMV/V5-DEST vector (Invitrogen) using the Gateway LR Clonase II enzyme mix. The recombinant adenoviral purified plasmid was used to generate adenoviral particles according to the manufacturer's instructions (Invitrogen). Adenoviral titer was determined using the AdenoX Rapid Titer Kit (Clontech).
(§1) Mouse tissue and cell samples were pulverized in liquid nitrogen and homogenized in RIPA lysis buffer containing complete EDTA-Free protease (Roche) and Phosphatase Inhibitor Cocktail 2 (Sigma-Aldrich, St. Louis, MO). All lysates were centrifuged, clarified, and resolved by SDS-PAGE. […] Densitometric analyses were performed using BioRad Quantity One image software (Bio-Rad, Hercules, CA).
(§2) Mouse serum Dj1 and CK were measured by mouse Park7/DJ-1 DuoSet ELISA (DY8136, R&D systems) and mouse CKMB/Creatine Kinase MB ELISA Kit (LS-F5745, LSBio) respectively. Mouse Serum AST and ALT were measured by AST activity assay kit (Sigma, MAK055) and ALT activity assay kit (Sigma, MAK052) respectively.
Strenuous exercise increases the endoplasmic reticulum (ER) stress, which at an excessive level can lead to muscle damage (12). […] To determine the mechanisms that drive skeletal muscle releases of Dj1, ER stress markers were examined in skeletal muscles of the three different mouse models described above. […] To further validate muscle cells release of Dj1, in vitro studies were assessed.
(§3) Extracellular vesicles are cell-derived membranous structures including exosomes and microvesicles bodies, which are enriched with proteins, lipids, DNA, and RNA (14). To examine whether Dj1 is released through the extracellular vesicle system, Dj1 levels were determined in the culture media of C2C12 myotubes that were treated with or without CCCP, Tg, exosome generation inhibitor GW4869, or exocytosis inhibitor Exo1. […] To visualize the release of Dj1 from muscle cells, time-lapse imaging was performed on C2C12 myocytes transfected with Dj1-GFP. […] To further determine which types of extracellular vesicles were enriched with Dj1, microvesicle bodies (MVBs) and exosomes from C2C12 culture media and CTX-treated mouse plasma were separated by differential centrifugation.

C2C12 myocytes = assay: Time-lapse imaging of Dj1-GFP transfected C2C12 myocytes; format: cell-based, mouse
Procedure: Before image analysis, raw .czi files were automatically processed into deconvoluted Airyscan images using Zen software. Time-lapse images were acquired at approximately 1 frame/second.
as §3

C57BL/6J mice = assay: Plasma Dj1 after intramuscular CTX injection; format: in vivo, mouse; details: 2 days post intramuscular administration
Procedure: as §2
Cardiotoxin (CTX) induces skeletal muscle injury and regeneration. To further validate the effect of muscle injury on circulating Dj1, C57BL/6J mice were injected intramuscularly with CTX, and plasma Dj1 levels were measured 2 days post-administration.

cleaved caspase 3 = details: C2C12 myocytes
Procedure: as §1

AML12 cells = assay: TG and NEFA content in palmitate acid-treated AML12 cells; format: cell-based, mouse
Procedure: Mouse myoblast cells (C2C12) were maintained in high glucose DMEM/high, 10% fetal bovine serum with penicillin/streptomycin. pRK5-Dj1-HA plasmid was purchased from Addgene (#29396). Seeded cells were cultured in 6-well plates for 24 hours prior to transfection. Transfections were performed using Lipofectamine 2000 and PLUS reagent according to manufacturer instructions (Invitrogen, Carlsbad, CA). Human HepG2 cells were cultured in DMEM/low media containing 10% fetal bovine serum with penicillin/streptomycin. Mouse AML12 cells were maintained in DMEM/F12, ITS supplement (Gibco, USA), 40 ng/ml dexamethasone, and 10% fetal bovine serum with penicillin/streptomycin. For in vitro experiments, HepG2 cells were treated with or without recombinant human Dj1 protein (Novus, NBC1-18334) in serum-free media containing 25 mM glucose, 200 μM palmitic acid, and 0.25% bovine serum albumin for an indicated time.
(§4) Dj1 is a highly conserved protein that is ubiquitously expressed in most mammalian tissues. It belongs to the Dj1/ThiJ/PfpI family chaperones, and its expression is induced by oxidative stress (20,21). To determine whether the PfpI domain of Dj1 exerts a similar role as the full-length Dj1 protein (rDj1) in liver cells, truncated Dj1 (tDj1) comprising of only the PfpI domain was purified (FIG. 5O). HFD-fed mice were intravenous injected with rDj1 or tDj1 every other day for 14 days.

p42 = p42 phosphorylation immunoblot in liver of HFD-fed mice; format: in vivo, mouse
Description: (§5) As described above, Dj1 administration stimulates AMPK phosphorylation in the liver cells. However, elevated AMPK phosphorylation in vivo was not observed (data not shown). Numerous studies have reported that the c-Jun N terminal kinase (JNK) is critical to the development of steatosis and chronic liver injury in NAFLD (22-25). […] However, not all MAPK pathways were activated. For example, phosphorylation of p42 was not altered by tDj1 treatment (FIG. 6O). Both rDj1 and tDj1 suppressed TNFα and Anisomycin-induced JNK (p54 and p46) phosphorylation in human HepG2 and mouse AML12 liver cells, respectively (FIGS. 6C-6D).

p38 = p38 phosphorylation immunoblot in liver of HFD-fed mice; format: in vivo, mouse
Description: as §5

JNK [1] = assay: JNK phosphorylation immunoblot in liver of HFD-fed mice; format: in vivo, mouse
Description: as §5

JNK [2] = assay: Anisomycin-induced JNK phosphorylation in AML12 cells; format: cell-based; details: mouse AML12 liver cells
Description: as §5

NASH diet-fed mice = assay: tDj1 administration in NASH diet-fed mice
Procedure: Animals were weaned 21 days after birth and had free access to food and water and were housed on 12 h light-dark cycle. C57BL/6J males were introduced to a normal diet (NC, Research Diets D15100601) or high-fat diet (HFD, Research Diets D12331), and maintained on a diet for the indicated time. […] NASH model mice were fed for up to 28 weeks with the NASH diet (Envigo, TD.120528) and 42% fructose (Sigma, F0127) in the water (1,2). […] Mice were raised in microisolator cages with a 12 h: 12 h light: dark cycle. All procedures were performed in accordance with the Guide for Care and Use of Laboratory Animals of the National Institutes of Health, and were approved by the Animal Subjects Committee of the University of California, Los Angeles.

ASK1 = ASK1 phosphorylation immunoblot, in vitro and in liver of HFD-fed mice; design: species or system mouse; details: in vitro and in vivo; liver of HFD-fed WT mice
Description: A wide variety of mechanisms activate the JNK pathway. […] Moreover, ASK1 is activated by various stresses, including oxidative stress, ER stress, calcium overload, and receptor-mediated inflammatory signals such as TNFα and lipopolysaccharide (LPS) (26,27). rDj1 administration suppressed both baseline and TNFα-induced ROS levels in HepG2 cells, which may contribute to reducing liver inflammation (FIG. 6F).

HFD-fed mice = assay: rDj1 or tDj1 intravenous every other day for 14 days in HFD-fed mice; format: in vivo, mouse
Procedure: C57BL/10cSn-Dmd^mdx/J (001801, mdx) and C57BL/10ScSnJ (000476, WT) mice were ordered directly from The Jackson Laboratory. Different ages of mdx and WT mice were obtained. Animals were weaned 21 days after birth and had free access to food and water and were housed on 12 h light-dark cycle. C57BL/6J males were introduced to a normal diet (NC, Research Diets D15100601) or high-fat diet (HFD, Research Diets D12331), and maintained on a diet for the indicated time. The HFD diet derives 58% of its kilocalories (kcal) from fat (soybean and coconut oil), 25.5% from carbohydrates (sucrose and maltodextrin), and 16.4% from protein (casein). NASH model mice were fed for up to 28 weeks with the NASH diet (Envigo, TD.120528) and 42% fructose (Sigma, F0127) in the water (1,2). The NASH diet is composed of 405.36 g/Kg sucrose and 12.5 g/Kg cholesterol. Recombinant mouse Dj1 protein (Novus, NBP2-59523) or truncated mouse Dj1 (tDj1, GenScript) protein was intravenously injected every day for 5 days or every other day for 2 weeks. Skeletal muscle-specific Park7 knockout mice were generated by crossing Park7 flox mice with Myl1-cre mice (JAX, #024713). Mice were raised in microisolator cages with a 12 h: 12 h light: dark cycle. All procedures were performed in accordance with the Guide for Care and Use of Laboratory Animals of the National Institutes of Health, and were approved by the Animal Subjects Committee of the University of California, Los Angeles.
Cryosections (10-μm thick transverse sections of frozen muscle cut in a cryostat (Leica) at −20° C.) were subjected to hematoxylin & eosin (H&E) staining (10, 54). Liver tissues were fixed in phosphate-buffered 10% formalin and embedded in paraffin wax. Sections were cut and stained with H&E.
as §2
Plasma and liver NEFA, Cholesterol, and Triglyceride were analyzed by their respective kits (FUJIFILM Wako Diagnostics)
About 80 mg of liver samples were homogenized and sonicated in PBS (pH 7.4) for lipid extraction. An internal standard mixture (ISTD) and CHCl3:methanol (2:1) were added to the samples before being vortexed, mixed, sonicated, and centrifuged. The supernatant containing the lipid was removed and dried, the lipids were resuspended in ethanol and then sonicated.
as §4

Molecule: COC(=O)c1ccccc1NC(=O)c1ccc(F)cc1 [Exo1]
- protein level of Dj1 in the media (C2C12 myotubes): significantly reduced

Molecule: O=C(/C=C/c1ccc(/C=C/C(=O)Nc2ccc(C3=NCCN3)cc2)cc1)Nc1ccc(C2=NCCN2)cc1 [GW4869]
- protein level of Dj1 in the media (C2C12 myotubes): significantly reduced

Molecule: C/C=C(/C)C(=O)O[C@H]1C(C)=C2[C@H]([C@@H]1OC(=O)CCCCCCC)[C@@](C)(OC(C)=O)C[C@H](OC(=O)CCC)[C@@]1(O)[C@H]2OC(=O)[C@@]1(C)O [Thapsigargin]
- budding of vesicles from cells (C2C12 myocytes; Dj1-GFP transfected C2C12 myocytes, time-lapse imaging): Robust budding of vesicles
- muscle cell release of Dj1 (C2C12 myotubes): release Dj1

Molecule: Cardiotoxin [CTX]
- Dj1 in the plasma (C57BL/6J mice): increase

Molecule: carbonyl cyanide m-chlorophenyl hydrazine [CCCP]
- budding of vesicles from cells (C2C12 myocytes): Robust budding of vesicles
- protein level of cleaved caspase 3 (cleaved caspase 3): did not alter
- Dj1 levels in the culture medium (C2C12 myotubes; C2C12 myocytes / myotubes): elevated
- HA-Dj1 levels in the media (C2C12 myotubes; C2C12 myocytes transfected with HA-tagged Dj1): elevated
- muscle cell release of Dj1 (C2C12 myotubes): release Dj1

B1: tDj1: truncated mouse Dj1 comprising only the PfpI domain, residues 32-173 per b12, SEQ ID NO: 3 (GenScript) (protein, listed as Mus musculus)
chain: KVTVAGLAGKDPVQCSRDVMICPDTSLEDAKTQGPYDVVVLPGGNLGAQNLSESPMVKEILKEQESRKGLIAAICAGPTALLAHEVGFGCKVTTHPLAKDKMMNGSHYSYSESRVEKDGLILTSRGPGTSFEFALAIVE
- TG levels (AML12 cells): reduced
- phosphorylation of p42 (p42): not altered
- p38 phosphorylation (p38): decreased
- JNK (p46 subunit) phosphorylation (JNK [1]): significantly reduced
- Anisomycin-induced JNK (p54 and p46) phosphorylation (JNK [2]): suppressed; also recorded: inhibits
- TG levels in the liver (NASH diet-fed mice; NASH diet-fed mice): did not considerably reduce
- fibrosis scores (NASH diet-fed mice; NASH diet-fed mice): significantly reduced
- hepatic apoptosis (TUNEL assay) (NASH diet-fed mice; NASH diet-fed mice): suppressed
- liver ALT activity (NASH diet-fed mice; NASH diet-fed mice): robustly reduced
- total cholesterol level in the liver (NASH diet-fed mice; NASH diet-fed mice): significantly suppressed
- inflammatory gene expression (NASH diet-fed mice; liver of NASH diet-fed mice): significantly reduced
- liver fibrosis gene expression (NASH diet-fed mice; liver of NASH diet-fed mice): significantly reduced
- protein levels of apoptosis markers (cleaved caspase 3, cleaved caspase 8, cleaved caspase 9, cleaved PARP) (NASH diet-fed mice; liver of NASH diet-fed mice): decreased
- body weight (NASH diet-fed mice; mice on NASH diet for 28 weeks): significantly reduced
- glucose tolerance (NASH diet-fed mice; mice on NASH diet for 28 weeks): improved
- insulin tolerance (NASH diet-fed mice; mice on NASH diet for 28 weeks): improved
- phosphorylation of apoptosis signal-regulating kinase 1 (ASK1) (ASK1): reduced; also recorded: inhibits
- level of TG in the liver (HFD-fed mice): significantly reduced
- liver histology, lipid accumulation (HFD-fed mice): less lipid accumulation
- plasma ALT levels (HFD-fed mice): reducing
- plasma AST levels (HFD-fed mice): reducing
